Here are results for six molecules from PMC12402098, “YTHDF3 recognizes DNA N6-methyladenine and recruits ALKBH1 for 6mA removal from genomic DNA” (The EMBO Journal, 2025).

In data set [1] the target is T1, YTHDF3 wild type (UniProt Q7Z739 1-585).
T1 sequence: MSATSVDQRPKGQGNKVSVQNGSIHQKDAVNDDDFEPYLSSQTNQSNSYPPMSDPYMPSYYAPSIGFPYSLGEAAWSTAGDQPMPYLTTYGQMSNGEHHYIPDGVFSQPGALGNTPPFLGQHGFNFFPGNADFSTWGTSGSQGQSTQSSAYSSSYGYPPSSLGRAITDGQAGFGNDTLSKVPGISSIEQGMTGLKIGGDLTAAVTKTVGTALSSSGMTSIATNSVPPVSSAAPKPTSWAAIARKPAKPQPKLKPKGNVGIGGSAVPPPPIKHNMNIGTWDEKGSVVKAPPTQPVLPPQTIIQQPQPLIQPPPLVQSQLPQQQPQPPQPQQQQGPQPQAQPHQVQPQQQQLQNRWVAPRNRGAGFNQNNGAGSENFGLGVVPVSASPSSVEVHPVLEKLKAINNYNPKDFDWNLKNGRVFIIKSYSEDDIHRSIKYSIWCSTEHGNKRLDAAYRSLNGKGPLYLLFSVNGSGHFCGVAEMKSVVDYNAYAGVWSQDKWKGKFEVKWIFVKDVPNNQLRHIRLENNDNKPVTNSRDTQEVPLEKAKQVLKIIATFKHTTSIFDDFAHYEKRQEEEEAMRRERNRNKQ
The data set is described as follows: EMSA; SPR: 1x HBS-EP+, biotin-DNA on SA chip (~500 RU), 30 ul/min; EMSA: LightShift kit, 30 C 20 min, then 2% glutaraldehyde on ice 15 min, 5% native gel; pull-down:
The conditions noted are these: protein: recombinant, tags: His.

The target in data set [2] is T2, YTHDF3-His (UniProt Q7Z739 1-585).
T2 construct: YTHDF3 inserted into pET 26b vector; pET26b would give a C-terminal His tag (surmise); also called recombinant YTHDF3; wild-type YTHDF3; source: E. coli BL21 (DE3), purified (His-tag protein purification kit); also coexpressed with ALKBH1 in E. coli, in lysate
T2 sequence (looked up): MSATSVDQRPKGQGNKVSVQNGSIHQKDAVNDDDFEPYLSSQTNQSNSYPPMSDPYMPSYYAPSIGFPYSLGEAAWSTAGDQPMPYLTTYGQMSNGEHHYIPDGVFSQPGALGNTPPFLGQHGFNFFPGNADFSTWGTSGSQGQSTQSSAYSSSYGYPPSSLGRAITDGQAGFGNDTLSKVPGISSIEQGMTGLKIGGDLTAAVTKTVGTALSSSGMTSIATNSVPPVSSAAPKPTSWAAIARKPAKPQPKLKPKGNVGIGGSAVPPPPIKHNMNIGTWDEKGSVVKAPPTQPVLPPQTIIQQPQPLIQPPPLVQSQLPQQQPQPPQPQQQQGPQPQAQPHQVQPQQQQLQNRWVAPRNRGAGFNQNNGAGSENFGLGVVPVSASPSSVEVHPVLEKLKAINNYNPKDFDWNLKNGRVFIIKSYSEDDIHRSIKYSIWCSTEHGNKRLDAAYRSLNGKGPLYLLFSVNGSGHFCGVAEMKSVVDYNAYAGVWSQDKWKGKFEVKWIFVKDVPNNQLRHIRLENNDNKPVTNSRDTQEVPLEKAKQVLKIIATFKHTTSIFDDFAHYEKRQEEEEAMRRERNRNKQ
The data set is described as follows: native gel or EMSA; recombinant ALKBH1 and increasing recombinant YTHDF3 with biotin-labeled 6mA-dsDNA oligos, 30 °C 20 min, 2% glutaraldehyde on ice 15 min, 5% nondenaturing gel. The settings on record: both partners purified.

For data set [3], the target named is T3, YTHDF3-His MT6mA (W438R/W492R) (UniProt Q7Z739 1-585, W438R | W492R).
T3 construct: YTHDF3 with W438R/W492R in the YTH domain, in pET 26b vector; also called YTHDF3-MT6mA-His; YTHDF3 W438R/W492R mutant; source: E. coli BL21 (DE3), purified (His-tag protein purification kit)
T3 sequence (looked up): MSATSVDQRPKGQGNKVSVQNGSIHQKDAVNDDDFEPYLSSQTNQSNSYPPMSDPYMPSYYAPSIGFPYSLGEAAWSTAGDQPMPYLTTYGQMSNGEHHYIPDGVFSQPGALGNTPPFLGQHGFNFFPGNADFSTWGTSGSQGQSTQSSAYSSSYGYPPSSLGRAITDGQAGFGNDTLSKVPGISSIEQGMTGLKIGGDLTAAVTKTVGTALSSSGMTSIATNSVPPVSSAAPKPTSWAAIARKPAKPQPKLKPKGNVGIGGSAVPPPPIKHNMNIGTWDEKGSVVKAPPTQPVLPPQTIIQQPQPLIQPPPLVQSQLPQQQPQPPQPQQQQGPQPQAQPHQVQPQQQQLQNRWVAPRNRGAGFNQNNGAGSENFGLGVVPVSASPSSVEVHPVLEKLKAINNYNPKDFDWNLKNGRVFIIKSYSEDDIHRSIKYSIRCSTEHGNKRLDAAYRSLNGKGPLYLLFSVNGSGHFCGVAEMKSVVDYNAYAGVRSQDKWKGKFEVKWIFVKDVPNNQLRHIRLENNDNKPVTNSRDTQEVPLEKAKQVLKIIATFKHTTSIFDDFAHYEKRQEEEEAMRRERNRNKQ
Kind of data set: pull-down; GST pull-down: recombinant YTHDF3-His proteins incubated with recombinant ALKBH1-GST protein beads at 4 °C for 1 h, washed three times, eluted with reduced L-glutathione, western blot. The conditions noted are these: both partners purified.

In data set [4] the target is T4, ALKBH1;YTHDF3 wild type (Homo sapiens?;Homo sapiens?, UniProt Q13686;Q7Z739 1-389;1-585, |).
T4 sequence 1: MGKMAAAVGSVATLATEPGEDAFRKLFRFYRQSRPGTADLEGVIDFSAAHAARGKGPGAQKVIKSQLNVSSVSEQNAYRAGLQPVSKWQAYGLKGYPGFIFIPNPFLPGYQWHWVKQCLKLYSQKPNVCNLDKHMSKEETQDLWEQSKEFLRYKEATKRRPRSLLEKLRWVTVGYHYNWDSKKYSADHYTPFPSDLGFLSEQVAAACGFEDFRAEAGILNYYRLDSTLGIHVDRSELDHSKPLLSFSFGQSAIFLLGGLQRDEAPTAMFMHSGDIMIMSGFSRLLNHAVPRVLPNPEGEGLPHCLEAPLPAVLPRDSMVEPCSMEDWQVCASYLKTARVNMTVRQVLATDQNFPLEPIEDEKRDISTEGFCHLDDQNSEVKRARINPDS
T4 sequence 2: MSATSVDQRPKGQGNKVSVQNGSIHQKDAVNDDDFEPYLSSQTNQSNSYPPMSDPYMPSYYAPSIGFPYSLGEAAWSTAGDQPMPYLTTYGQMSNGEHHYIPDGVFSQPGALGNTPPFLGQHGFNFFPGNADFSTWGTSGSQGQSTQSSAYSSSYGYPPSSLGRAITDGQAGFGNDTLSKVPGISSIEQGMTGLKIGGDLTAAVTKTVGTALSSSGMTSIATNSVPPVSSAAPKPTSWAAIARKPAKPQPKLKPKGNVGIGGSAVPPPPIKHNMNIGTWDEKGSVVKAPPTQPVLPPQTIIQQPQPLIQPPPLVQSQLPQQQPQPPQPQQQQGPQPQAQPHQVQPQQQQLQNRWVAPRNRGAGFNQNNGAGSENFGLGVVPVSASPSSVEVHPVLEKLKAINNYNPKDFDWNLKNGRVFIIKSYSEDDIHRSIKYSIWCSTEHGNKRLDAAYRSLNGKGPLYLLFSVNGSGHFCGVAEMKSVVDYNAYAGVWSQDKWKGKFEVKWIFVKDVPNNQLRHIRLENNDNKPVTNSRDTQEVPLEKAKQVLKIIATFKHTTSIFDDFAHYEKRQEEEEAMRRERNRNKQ
Kind of data set: pull-down; YTHDF3 increases ALKBH1 binding; SPR: 1x HBS-EP+, biotin-DNA on SA chip (~500 RU), 30 ul/min; EMSA: LightShift kit, 30 C 20 min, then 2% glutaraldehyde on ice 15 min, 5% native gel; pull-down:
The settings on record: protein: recombinant;recombinant.

The target of data set [5] is T1, YTHDF3 wild type. The data set is described as follows: EMSA, pull-down; SPR: 1x HBS-EP+, biotin-DNA on SA chip (~500 RU), 30 ul/min; EMSA: LightShift kit, 30 C 20 min, then 2% glutaraldehyde on ice 15 min, 5% native gel; pull-down:
The settings on record: protein: recombinant, tags: His.

[6] abbreviates: label: 3' biotin strand 1, duplex with bulge of unpaired nt in strand 1 around 6mA.
The mark [7] stands for this setting: label: 3' biotin strand 1, duplex with internal mismatch bubble around 6mA.

B1: tRNA-m1A-oligo (ssRNA)
RNA: CCCGGUUCGAUUCCCGG
modifications: N1-methyladenosine at A10
Take B1: the binding result in data set [1] (label: 3' biotin) is given as “no binding”.

B2: ss-m6A-oligo (ssRNA)
RNA: CGUCUCGGACUCGGACUGCU
modifications: N6-methyladenosine at A9
B2: in data set [1] (label: 5' biotin), the binding result is given as “binds”.

B3: ALKBH1-GST (enzyme, UniProt Q13686 1-389, looked up)
chain: MGKMAAAVGSVATLATEPGEDAFRKLFRFYRQSRPGTADLEGVIDFSAAHAARGKGPGAQKVIKSQLNVSSVSEQNAYRAGLQPVSKWQAYGLKGYPGFIFIPNPFLPGYQWHWVKQCLKLYSQKPNVCNLDKHMSKEETQDLWEQSKEFLRYKEATKRRPRSLLEKLRWVTVGYHYNWDSKKYSADHYTPFPSDLGFLSEQVAAACGFEDFRAEAGILNYYRLDSTLGIHVDRSELDHSKPLLSFSFGQSAIFLLGGLQRDEAPTAMFMHSGDIMIMSGFSRLLNHAVPRVLPNPEGEGLPHCLEAPLPAVLPRDSMVEPCSMEDWQVCASYLKTARVNMTVRQVLATDQNFPLEPIEDEKRDISTEGFCHLDDQNSEVKRARINPDS
notes: ALKBH1 inserted into pGEX vector; it would add GST at the N-terminus (surmise). 'Recombinant ALKBH1' of EMSA, DNA pull-down and demethylase assays may be this protein or ALKBH1-His; also called recombinant ALKBH1; A1; source: E. coli BL21 (DE3), purified (glutathione Sepharose; on beads or eluted with reduced L-glutathione)
For B3, the binding result in data set [2] and in data set [3] was “binds” each time.

B4: Bulge-6mA (mixed)
DNA 1: AACTTCGTGCAGGCATGGGATCTTGTCTACT
DNA 2: AGTAGACACATGCCTGCACGAAGTT
modifications: N6-methyl-dA at A20 of strand 1
B4: the binding result in data set [4] (setting [6]) and in data set [5] (setting [6]) was “binds” in each case.

B5: Bubble-6mA (mixed)
DNA 1: AACTTCGTGCAGGCATGGGATCTTGTCTACT
DNA 2: AGTAGACAGTCGATCATGCCTGCACGAAGTT
modifications: N6-methyl-dA at A20 of strand 1
For B5, the binding result in data set [4] (setting [7]) and in data set [5] (setting [7]) was “binds” each time.

B6: ss-6mA (ssDNA)
DNA: AACTTCGTGCAGGCATGGGATCTTGTCTACT
modifications: N6-methyl-dA at A20
With B6, the binding result in data set [4] (label: 3' biotin) and in data set [5] (label: 3' biotin) was “binds” throughout.
